Laboratory results: patent publication US10413607B2, “Antibody specifically binding to ErbB3 and use thereof” (ISU ABXIS CO., LTD., priority 2015, dated 2019)

Columns and labels:
[1] = tested on: ZR-75-30 cells; experiment: Paclitaxel resistance, caspase 3/7 activity in ZR-75-30 breast cancer cells with HRG; type: cell-based; conditions: 100 ng/mL HRG, 10 nM Paclitaxel, 25 μg/mL 442S1, about 72 hours; FIG. 10
Description: About 1×10^4 ZR-75-30 cells (American Type Culture Collection) were inoculated onto a plate and incubated in RPMI 1640 medium (Invitrogen) including 10% (v/v) FBS at 37° C. under 5% CO2 conditions for about 24 hours. The medium was then exchanged with fresh medium (100 ng/mL HRG added) including 0.1% (v/v) FBS, and further incubation was performed at 37° C. under 5% CO2 conditions for about 24 hours. 10 nM of Paclitaxel (Bristol-Myers Squibb) and 25 μg/mL of antibody 442S1 were added to the cultured cells and incubated at 37° C. under 5% CO2 conditions for about 72 hours. The cultured cells were collected, and the activity of caspase 3/7 as an apoptotic marker was measured using a Caspase 3/7 Substrate Assay (Promega).

[2] = target: T1, recombinant human ErbB3 protein (Homo sapiens, UniProt P21860); experiment: Binding affinity of anti-ErbB3 antibody to human ErbB3 protein (Octet QK384); conditions: immobilized human ErbB3
T1 construct: purchased R&D systems
Description: In particular, the binding affinities of the anti-ErbB3 antibodies to the recombinant human ErbB3 protein (R&D systems) and the antigen-antibody interactive dynamics were measured using an Octet® QK384 system (Pall Life Sciences). After activation of carboxyl groups in 20 mM of 1-ethyl-3-(3-dimethylaminopropyl)carbodiimide hydrochloride (EDC) and 40 mM of N-hydroxysulfosuccinimide (sulfo-NHS) solution on an AR2G sensor (ForteBio), 10 μg/mL of human ErbB3 protein solution diluted with 10 mM of sodium acetate (pH 4.0) (ForteBio) was added to immobilize human ErbB3 protein onto the AR2G sensor. The AR2G sensor to which the human ErbB3 protein was immobilized was treated with 1 M of ethanolamine (ForteBio) to inactivate the remaining unreacted carboxyl groups.

[3] = tested on: FaDu head and neck cancer, pancreatic cancer, or lung cancer; experiment: Tumor growth inhibition, FaDu head and neck, pancreatic or lung cancer animal model; type: in vivo
Description: The antibody 442S1 was administered into FaDu head and neck cancer, pancreatic cancer, or lung cancer animal model, and the antibodies 442P or 472P antibodies were administered into gastric cancer animal model, in the same manner as described in Examples 3.1 to 3.3.

[4] = tested on: FaDu human head and neck cancer cells; experiment: Cetuximab resistant FaDu xenograft model; type: in vivo, NOD SCID mice; conditions: after Cetuximab failure; 10 mg/kg 442S1, 5 mg/kg Cetuximab, twice a week, 2 weeks; FIG. 12
Description: FaDu human head and neck cancer cells (Shanghai Institutes of Biological Sciences) were incubated in EMEM medium (Hyclone) including 10% FBS (Invitrogen), 0.01 mM NEAA (Non-Essential Amino Acid, Hyclone), and 2 mM L-glutamine (Invitrogen). About 5×10^6 FaDu cancer cells were suspended in 100 μl of PBS and then subcutaneously injected into the frank region of the female NOD SCID mice (HFK Bio-Technology Co., Ltd.). Weights of the mice were measured twice a week, and tumor volume was calculated using the equation of “0.5 a×b^2”, where a and b were the long and short diameters of the tumor, respectively. When the tumor volume reached about 165 mm^3 after 8 days from the inoculation of the cancer cells, the mice were randomly selected. […] Tumor volumes were measured twice a week.

CC(=O)O[C@H]1C(=O)[C@@]2(C)[C@H]([C@H](OC(=O)c3ccccc3)[C@]3(O)C[C@H](OC(=O)[C@H](O)[C@@H](NC(=O)c4ccccc4)c4ccccc4)C(C)=C1C3(C)C)[C@]1(OC(C)=O)CO[C@@H]1C[C@@H]2O [Paclitaxel]
activity of caspase 3/7 [1]: reduced

B1: 442S1: modified anti-ErbB3 antibody from lead antibody 442P (CDR mutagenesis) (antibody, V domains shown)
VH: EVQLLESGGGLVQPGGSLRLSCAASGFTFSDYDMSWVRQAPGKGLEWVSTIDLDSGSIYYADSVQGRFTISRDNSKNTLYLQMNSLRAEDTAVYYCAKDLHMGPEGPFDYWGQGTLVTVSS
VL: QSVLTQPPSASGTPGQRVTISCSGSSSNIGSNSVSWYQQLPGTAPKLLIYSDNHRPSGVPDRFSGSKSGTSASLAISGLRSEDEADYYCQGWDTSLSGHVFGGGTKLTVLG
modifications: Heavy chain variable region of antibody 442S1; Light chain variable region of antibody 442S1
ka (association constant) ([2]; binding phase about 900 seconds): 522000 M⁻¹ s⁻¹ | kd (dissociation constant) ([2]; dissociation phase about 1200 seconds): 3.94e-07 s⁻¹ | tumor volume relative to negative control group [3]: tumor volume was reduced | tumor suppression effect compared with Cetuximab alone [4]: significant tumor suppression effect
